# Source: paper PMC5689619
# Columns and labels:
# GST-RAB40C = GST-RAB40C (UniProt Q96S21)
# GST-H-Ras = GST-H-Ras (UniProt P01112)
substance,measurement,setting,value
"GST-GAP R385L (DAB2IP GAP domain, catalytically defective mutant) (domain or fragment)","Kcat/KM ratio (catalytic efficiency) of GAP-stimulated GTP hydrolysis, release of inorganic phosphate",GST-RAB40C,66
same,"Kcat/KM ratio (catalytic efficiency) of GAP-stimulated GTP hydrolysis, release of inorganic phosphate",GST-H-Ras,102
GST-GAP (DAB2IP GAP domain) (domain or fragment),"Kcat/KM ratio (catalytic efficiency) of GAP-stimulated GTP hydrolysis, release of inorganic phosphate",GST-RAB40C,114
same,"Kcat/KM ratio (catalytic efficiency) of GAP-stimulated GTP hydrolysis, release of inorganic phosphate",GST-H-Ras,229
